Legend:
[1] = test system: Human mesenchymal stromal/stem adipose tissue cells (ATSC); assay: Proliferation of adipose tissue stem cells (ATSC), [H3]-thymidine incorporation; type: cell-based; settings: for Cell proliferation (cpm × 103): 24 h
Description: Human mesenchymal stromal/stem adipose tissue cells (ATSC) were isolated either from liposuction aspirates or from products of the fat deposit removed during the cosmetic surgery. The tissue was mechanically split to the fragments of several cubic millimeters. A suspension of tissue was mixed with type I Collagenase (200 U/ml) and Dispase (30 U/ml) (Sigma) in solution of 50% DMEM (Sigma, D-5523), 50% F12 (Sigma, N-6760), 1% BSA (Sigma), /100 U/ml penicillin and 100 U/ml ampicilline in 1:1 v/v and incubated for 1 hr at 37° C. to with mixing, following by filtering through 40 μm membrane (BD Falcon). The suspension was centrifuged 5 min at 200 g, upper layer was removed, and pellet consisting of separate non-adipose cells was treated by erythrocyte lysis buffer (154 mM NH4Cl, 10 mM KHCO3, 0.1 mM EDTA) during 5 min at 37° C., following by 5 min centrifugation at 300 g. Cell pellet was resuspended in DMEM/10% FBS. Resulting cells were cultured in the same medium in plastic flasks in CO2 incubator (37° C., 5% CO2). When reaching confluence, the cells were passaged by treatment the cell monolayer with 0.25% trypsin/0.02% EDTA. For the purpose of long-time storage, the cells were frozen in the culture medium supplemented by 15-20% FBS and 10% DMSO. Adipose cells were cultivated in DMEM/F12 medium with the addition 10% FBS 0.1% ECGF on 60 mm Petri dishes at 37° C. and 5% CO2. For the passages 0.25% trypsin/0.02% EDTA. solution was used. For the purpose of long-time storage, the cells were frozen in the culture medium supplemented by 15-20% FBS and 10% DMSO. Adipose tissue stem cells (ATSC) were cultivated in DMEM/F12 medium with the addition 10% FBS 0.1% ECGF on 60 mm Petri dishes at 37° C. and 5% CO2. For the passages 0.25% trypsin/0.02% EDTA solution was used. For the purpose of long-time storage, the cells were frozen in the culture medium supplemented by 15-20% FBS and 10% DMSO.
Human donor ATSC were isolated and cultivated as described above, the cells from 2-4 passage were taken in the study. ADSC (3×10^4) were plated in flat-bottom 96-well plates (Costar, USA) in complete medium with 10% FCS, after 18 h the medium was changed onto the medium with 5% human sera and cells were treated with increasing amounts of rhAFP (0-500 μg/ml) for 24 h. The direct effect of rhAFP on proliferation of ATSC was measured by [H^3]-thymidine incorporation. For the last 4 h 1 μCi of methyl-[H^3]-thymidine was added to the cultures.

[2] = test system: human hepatoma cells HepG2; assay: Human hepatoma xenografts in Nude mice, rhAFP monotherapy; type: in vivo, Balb C/Nude mice
Method: To study tumor-suppression upon monotherapy with rhAFP we used in vivo model of human hepatoma xenografts in Nude mice. Balb C/Nude mice 8/group were implanted with 12×10^6 human hepatoma cells HepG2 s/c. rhAFP 10 mg/kg was injected i/p 9 times each 48 hrs during 16 days. Effectiveness of treatment was assessed by measuring and weighting of the tumor at the 30th day of experiment and by comparison of the quantity of mice with tumor during time of observation.

[3] = test system: PHA-activated CBA thymocytes; assay: PHA-mediated thymocyte proliferation in vitro; type: cell-based, mouse CBA; settings: AFP alone, 24 hrs after 48 hrs PHA 1.5 μg/ml
[4] = test system: resting mouse T-cells; assay: Control resting splenocytes / resting T-cells treated with rhAFP/CsA; type: cell-based, mouse (CBA)
Method: Control resting splenocytes CBA were treated for the same time with combination of rhAFP/CysA (FIG. 10C). Cytostatic effects were assessed by monitoring of cell proliferation by [^3H]-thymidine incorporation.

[5] = test system: cells of B-cellular lymphoma Raji; assay: Suppression of growth of Raji cells in vitro, [H3]-thymidine incorporation; type: cell-based, human; settings: 12 hours with AFP, dose-dependent, FIG. 5
Method: The functional activity of rAFP and the modified forms thereof were determined according to its capability of suppressing the growth of cells of B-cellular lymphoma Raji in the culture in vitro, as earlier described (Semenkova, L. 1997, Tumor Biol. 18, 261-274; Dudich E. I., et al., 1998, Tumor Biol. 198, 30-40). Preliminarily washed by a fresh medium, Raji cells were placed into each cell of a 96-alverolar plate according to 5×10^3 in 0.1 ml of a medium RPMI-1640 in the presence of a 10% fetal calf serum, then different doses of AFP were added for 12 hours. Proliferation of the cells was measured by a standard method by the introduction of [H^3]-thymidine during the last 4 hours of culturing. For comparison, the dose-dependent reactivity was studies for two samples of AFP of embryonal origin embrAFP and yeast rAFP (FIG. 5). […] Similarly, in order to determine the activity to preparations on the base of AFP in vitro, any other lines of cancer cells may be used that are sensitive to the suppressive action of AFP, such as human hepatocarcinoma HepG2, breast cancer MCF-7, prostate cancer LnCap, myeloblastoma U-937 and others (Semenkova, L. 1997, Tumor Biol. 18, 261-274; Dudich E. I., et al., 1998, Tumor Biol. 198, 30-40).

[6] = test system: human hepatoma cells HepG2; assay: Treatment of HepG2 cells in vitro with rhAFP; type: cell-based
Method: Results: Without treatment, tumors were determined at 5th-7th day after transplantation.

[7] = test system: syngeneic leukemia cells P388; assay: Syngeneic acute leukemia P388 in BDF1 mice, survival over 30 days; type: in vivo; settings: rhAFP 25.0 mg/kg
Description: We have studied the effect of combined treatment with AFP+Dox of acute leukemia in mice BDF1 with transplanted intrapleurally syngeneic P388 leukemia cells. BDF-1 mice (84 male, 28 mice per treatment) were implanted with lethal dose of 12×10^6 syngeneic leukemia cells P388 in the pleural region. Animals were subjected to monotherapy with Dox and combined therapy with rhAFP/Dox upon simultaneous single injection of drugs in various doses. Animal survival was compared over 30 days.

B1: rhAFP: recombinant human alpha-fetoprotein secreted by yeast Saccharomyces cerevisiae YBS723/pKX, glycosylated, mature human AFP sequence SEQ ID NO:2 (protein, listed as Homo sapiens)
chain: TLHRNEYGIASILDSYQCTAEISLADLATIFFAQFVQEATYKEVSKMVKDALTAIEKPTGDEQSSGCLENQLPAFLEELCHEKEILEKYGHSDCCSQSEEGRHNCFLAHKKPTPASIPLFQVPEPVTSCEAYEEDRETFMNKFIYEIARRHPFLYAPTILLWAARYDKIIPSCCKAENAVECFQTKAATVTKELRESSLLNQHACAVMKNFGTRTFQAITVTKLSQKFTKVNFTEIQKLVLDVAHVHEHCCRGDVLDCLQDGEKIMSYICSQQDTLSNKITECCKLTTLERGQCIIHAENDEKPEGLSPNLNRFLGDRDFNQFSSGEKNIFLASFVHEYSRRHPQLAVSVILRVAKGYQELLEKCFQTENPLECQDKGEEELQKYIQESQALAKRSCGLFQKLGEYYLQNAFLVAYTKKAPQLTSSELMAITRKMAATAATCCQLSEDKLLACGEGAADIIIGHLCIRHEMTPVNPGVGQCCTSSYANRRPCFSSLVVDETYVPPAFSDDKFIFHKDLCQAQGVALQTMKQEFLINLVKQKPQITEEQLEAVIADFSGLLEKCCQGQEQEVCFAEEGQKLISKTRAALGV
modifications: yeast glycosylation
[1]; 300 μg/ml of rhAFP, compared to untreated control
  Maximum effect on proliferation of ATSC: 50%
[1]; AFP 0.100 mg/ml, 2 passage
  Cell proliferation, change versus control: (+16%)
[1]; AFP 0.100 mg/ml, 2 passage, control 17.8 ± 6.4
  Cell proliferation (cpm × 103): 20.7 ± 0.7 cpm × 103
[1]; AFP 0.100 mg/ml, 3 passage
  Cell proliferation, change versus control: (+7%)
[1]; AFP 0.100 mg/ml, 3 passage, control 16.5 ± 1.5
  Cell proliferation (cpm × 103): 17.7 ± 5.3 cpm × 103
[1]; AFP 0.100 mg/ml, 4 passage
  Cell proliferation, change versus control: (+20%)
[1]; AFP 0.100 mg/ml, 4 passage, control 0.83 ± 0.1
  Cell proliferation (cpm × 103): 1.0 ± 0.08 cpm × 103
[1]; AFP 0.300 mg/ml, 2 passage
  Cell proliferation, change versus control: (+44%)
[1]; AFP 0.300 mg/ml, 2 passage, control 17.8 ± 6.4
  Cell proliferation (cpm × 103): 25.8 ± 4.1 cpm × 103
[1]; AFP 0.300 mg/ml, 3 passage
  Cell proliferation, change versus control: (+35%)
[1]; AFP 0.300 mg/ml, 3 passage, control 16.5 ± 1.5
  Cell proliferation (cpm × 103): 22.4 ± 1.4 cpm × 103
[1]; AFP 0.300 mg/ml, 4 passage
  Cell proliferation, change versus control: (+50%)
[1]; AFP 0.300 mg/ml, 4 passage, control 0.83 ± 0.1
  Cell proliferation (cpm × 103): 1.2 ± 0.24 cpm × 103
[2]; rhAFP 10 mg/kg i/p 9 times each 48 hrs during 16 days
  tumor growth in the period of treatment: tumors did not grow in the period of treatment
[2]; rhAFP 10 mg/kg i/p 9 times each 48 hrs, tumor weighed at 30th day
  inhibition of total tumor weight relatively to untreated control: 90%
[3]
  proliferation of PHA-stimulated thymocytes in response to AFP: distinct dose-dependent growth suppression
[4]; AFP as modulator of CsA-mediated signals
  suppression of resting immune cells: does not suppress resting immune cells
[4]; FIG. 10C
  effect of rhAFP on CsA treatment of resting mouse T-cells: cancellation of the cytotoxic effects of CsA treatment
[5]
  cytostatic activity, inhibition of growth of Raji cells: expressed cytostatic activity
[6]
  effect on HepG2 cells in vitro: dose-dependent growth suppression and apoptosis
[7]
  Survival more 30 days: 0
  T/C %: 118%
[7]; single injection
  T (survival, days): [15.7/21.8] 7.7 [6.4/ days

— patent US9931373B2, “Method of reducing cancer cell proliferation by administering recombinant alpha-fetoprotein” (priority 2005, dated 2018)
